Assay results from patent publication US20250136682A1 (ACADEMIA SINICA, published 2025).
Changes are numbered by the printed parent chain. One block for each binder: values may come before it.

Legend:
[1] = molecular target: T1, human Siglec-3 (CD33) on cells (human, UniProt P20138 18-364); assay: flow cytometry, APC-conjugated antibody titrated on human monocytes (endogenous Siglec-3)
T1 construct: whole, on cells; also called human endogenous or exogenous Siglec-3
Procedure: (§1) For establishment of titration curves, human monocytes and moDCs (3×10⁴) were incubated with the indicated concentrations of the APC-conjugated anti-Siglec-3 antibodies 4H3-3A, 10C8, as well as hIgG1 control, and analyzed by a flow cytometry instrument (FACSVerse; BD Biosciences). Mean fluorescence intensity (MFI) was analyzed by a software FlowJo (TreeStar, Inc.).

[2] = molecular target: T1, human Siglec-3 (CD33) on cells; assay: flow cytometry on moDCs (data not shown)
[3] = molecular target: T1, human Siglec-3 (CD33) on cells; assay: flow cytometry, APC-conjugated antibody titrated on human monocyte-derived dendritic cells (endogenous Siglec-3)
Procedure: as §1

[4] = molecular target: T2, human CD33.Fc (recombinant extracellular domain of human Siglec-3 fused with Fc portion of hIgG1) (human, UniProt P20138 18-259); assay: SPR (BIAcore 2000), human CD33.Fc immobilized on CM5 chip
T2 construct: extracellular domain; also called Siglec-3.Fc; not shown: Fc portion of human IgG1
T2 sequence (P20138 18-259): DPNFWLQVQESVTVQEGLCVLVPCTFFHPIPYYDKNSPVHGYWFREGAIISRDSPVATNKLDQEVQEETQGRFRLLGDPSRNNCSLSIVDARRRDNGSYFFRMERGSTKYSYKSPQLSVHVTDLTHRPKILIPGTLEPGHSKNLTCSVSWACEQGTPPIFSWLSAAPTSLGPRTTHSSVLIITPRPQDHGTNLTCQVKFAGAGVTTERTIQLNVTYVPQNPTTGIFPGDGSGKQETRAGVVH
Procedure: Human IgG1 was first mobilized on channel one of a CM5 chip as the blank to determine the bulk effect of injection itself, whereas human CD33.Fc were immobilized on channel two for analysis of its kinetic interaction with wild various clones of anti-CD33 mAbs, respectively. The interaction between […] and anti-CD33 mAbs was determined by surface plasmon resonance using a Biacore instrument (BIAcore 2000).

[5] = molecular target: T3, mouse Siglec-3 expressed in HEK-293T cells (mouse, UniProt Q63994 17-403); assay: flow cytometry, antibody titrated on HEK-293T cells expressing exogenous mouse Siglec-3
T3 construct: whole, on cells
T3 sequence (looked up): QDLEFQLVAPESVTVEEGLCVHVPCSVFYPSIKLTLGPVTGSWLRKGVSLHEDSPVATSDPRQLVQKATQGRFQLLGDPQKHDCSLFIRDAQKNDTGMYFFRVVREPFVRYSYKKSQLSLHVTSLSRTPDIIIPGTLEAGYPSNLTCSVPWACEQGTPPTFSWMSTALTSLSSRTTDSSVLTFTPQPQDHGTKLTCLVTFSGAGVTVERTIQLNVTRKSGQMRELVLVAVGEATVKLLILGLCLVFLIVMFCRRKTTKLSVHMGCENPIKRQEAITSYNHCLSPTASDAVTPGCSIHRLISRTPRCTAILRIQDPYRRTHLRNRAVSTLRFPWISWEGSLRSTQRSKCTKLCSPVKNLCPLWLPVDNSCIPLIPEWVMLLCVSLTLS

T1 sequence (P20138 18-364): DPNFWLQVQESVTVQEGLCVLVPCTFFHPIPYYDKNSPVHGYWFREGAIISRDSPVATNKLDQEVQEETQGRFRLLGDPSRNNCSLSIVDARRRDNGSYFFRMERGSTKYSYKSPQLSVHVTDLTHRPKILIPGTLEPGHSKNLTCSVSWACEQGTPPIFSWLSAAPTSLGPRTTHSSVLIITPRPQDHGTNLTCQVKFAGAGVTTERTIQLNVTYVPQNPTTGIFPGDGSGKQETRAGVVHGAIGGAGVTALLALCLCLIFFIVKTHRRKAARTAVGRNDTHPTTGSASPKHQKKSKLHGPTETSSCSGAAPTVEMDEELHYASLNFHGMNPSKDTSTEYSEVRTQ

B1: anti-Siglec-3 antibody 10C8 (antibody, V domains shown)
VH: EVQLVESGGGLVQPGGSLRLSCAASGFTINNGWIHWVRQAPGKGLEWVAGIGPYGGSTFYADSVKGRFTISADTSKNTAYLQMNSLRAEDTAVYYCSRFIGSYSHMDYWGQGTLVTVSS
VL: DIQMTQSPSSLSASVGDRVTITCRASQDVYYYVAWYQQKPGKAPKLLISSAGGLYSGVPSRFSGSGSGTDFTLTISSLQPEDFATYYCQQYFNFPLTFGQGTKVEIKR
EC50 (read off the curve) [1]: ~200 nM

B2: anti-Siglec-3 antibody S3H1-85 reformatted into human IgG1 or IgG4 (antibody, V domains shown)
VH: VQLVESGGGLVQPGGSLRLSCAASGFTIGSGWIHWVRQAPGKGLEWVAGIGPYGGYTYYADSVKGRFTISADTSKNTAYLQMNSLRAEDTAVYYCARFNDHWDLWMDYWGQGTLVTVSS
VL: B1 VL with Y31G, S50Y, A51T, G52P, F92Y, N93D, L96I
notes: also called 1S3H1-85; 4S3H1-85
binding result [2]: binds

B3: anti-Siglec-3 antibody H3-10F reformatted into human IgG1 or IgG4 (antibody, V domains shown)
VH: B2 VH with G29D, S30D, W32F, N99A, D100T, W102D, D103Q, L104P, W105L
VL: B1 VL with Y31G, S50Y, A51T, G52P, F92Y, N93D, L96I
notes: also called 1H3-10F; 4H3-10F
binding result [2]: binds

B4: anti-Siglec-3 antibody S3H1-29 reformatted into human IgG1 or IgG4 (antibody, V domains shown)
VH: B2 VH with G29H, S30G, G31S, W102Q
VL: B1 VL with Y31G, S50Y, A51T, G52P, F92Y, N93D, L96I
notes: also called 1S3H1-29; 4S3H1-29
binding result [2]: binds

B5: anti-Siglec-3 antibody S3H1-74 reformatted into human IgG1 or IgG4 (antibody, V domains shown)
VH: B2 VH with G29H, S30G, G31S
VL: B1 VL with Y31G, S50Y, A51T, G52P, F92Y, N93D, L96I
notes: also called 1S3H1-74; 4S3H1-74
binding result [2]: binds

B15: 1H3-3A (antibody, human IgG1, kappa)
light chain: DGTDIQMTQSPSSLSASVGDRVTITCRASQDVYGYVAWYQQKPGKAPKLLISYTPGLYSGVPSRFSGSGSGTDFTLTISSLQPEDFATYYCQQYYDFPITFGQGTKVEIKRTVAAPSVFIFPPSDEQLKSGTASVVCLLNNFYPREAKVQWKVDNALQSGNSQESVTEQDSKDSTYSLSSTLTLSKADYEKHKVYACEVTHQGLSSPVTKSFNRGEC
heavy chain: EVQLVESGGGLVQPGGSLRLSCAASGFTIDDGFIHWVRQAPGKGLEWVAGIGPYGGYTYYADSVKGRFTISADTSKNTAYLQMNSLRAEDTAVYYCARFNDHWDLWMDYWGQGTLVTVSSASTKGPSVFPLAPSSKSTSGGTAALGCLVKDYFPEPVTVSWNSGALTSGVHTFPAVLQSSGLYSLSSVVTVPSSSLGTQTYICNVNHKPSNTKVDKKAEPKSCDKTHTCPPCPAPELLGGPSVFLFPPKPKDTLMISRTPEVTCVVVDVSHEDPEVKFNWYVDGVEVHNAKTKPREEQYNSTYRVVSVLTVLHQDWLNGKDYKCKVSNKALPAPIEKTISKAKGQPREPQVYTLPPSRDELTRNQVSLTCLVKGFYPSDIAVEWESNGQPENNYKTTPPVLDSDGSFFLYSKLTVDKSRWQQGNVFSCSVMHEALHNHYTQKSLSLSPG
EC50 (read off the curve) [1]: ~100 nM
EC50 (read off the curve) [3]: ~30 nM

B16: anti-Siglec-3 antibody 4H3-3A (scFv clone H3-3A reformatted into hIgG4) (antibody)
heavy: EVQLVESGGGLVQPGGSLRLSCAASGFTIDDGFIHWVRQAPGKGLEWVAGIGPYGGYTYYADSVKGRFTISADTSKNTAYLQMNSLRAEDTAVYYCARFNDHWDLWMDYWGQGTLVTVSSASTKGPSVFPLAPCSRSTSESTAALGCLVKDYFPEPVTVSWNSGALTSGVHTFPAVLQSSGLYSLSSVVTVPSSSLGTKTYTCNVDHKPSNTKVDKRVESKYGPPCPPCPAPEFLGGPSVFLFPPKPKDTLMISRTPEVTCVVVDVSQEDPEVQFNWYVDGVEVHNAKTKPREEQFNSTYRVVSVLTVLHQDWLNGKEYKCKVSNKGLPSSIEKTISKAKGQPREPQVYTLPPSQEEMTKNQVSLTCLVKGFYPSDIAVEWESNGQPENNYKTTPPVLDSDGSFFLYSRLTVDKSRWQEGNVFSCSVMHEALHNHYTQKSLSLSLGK
light: B15 light chain
notes: Human IgG4 format
Kd [4]: 8.88 nM
koff [4]: 0.0373 s⁻¹
kon [4]: 4.21e+06 M⁻¹ s⁻¹
binding result [5]: no binding

Further lines, results first:

binding result [2]: binds
B6: anti-Siglec-3 antibody S3H1-76 reformatted into human IgG1 or IgG4 (antibody, V domains shown)
VH: B2 VH with G29S, G31S, W32Y
VL: B1 VL with Y31G, S50Y, A51T, G52P, F92Y, N93D, L96I
notes: also called 1S3H1-76; 4S3H1-76

binding result [2]: binds
B7: anti-Siglec-3 antibody S3H2-8 reformatted into human IgG1 or IgG4 (antibody, V domains shown)
VH: B2 VH with G29D, S30D, W32F, G49A, G51K, Y53R, G54Q, Y56D, Y58S
VL: B1 VL with Y31G, S50Y, A51T, G52P, F92Y, N93D, L96I
notes: also called 1S3H2-8; 4S3H2-8

binding result [2]: binds
B8: anti-Siglec-3 antibody H3-10E reformatted into human IgG1 or IgG4 (antibody, V domains shown)
VH: B2 VH with G29D, S30D, W32F, N99Q, D100N, H101S, W102P, D103T, L104K, W105T
VL: B1 VL with Y31G, S50Y, A51T, G52P, F92Y, N93D, L96I
notes: also called 1H3-10E; 4H3-10E

binding result [2]: binds
B9: anti-Siglec-3 antibody H3-8F reformatted into human IgG1 or IgG4 (antibody, V domains shown)
VH: B2 VH with G29D, S30D, W32F, N99R, H101T, W102Q, D103S, L104Q, W105T
VL: B1 VL with Y31G, S50Y, A51T, G52P, F92Y, N93D, L96I
notes: also called 1H3-8F; 4H3-8F

binding result [2]: binds
B10: anti-Siglec-3 antibody S3PL3-46 reformatted into human IgG1 or IgG4 (antibody, V domains shown)
VH: B2 VH with G29D, S30D, W32F
VL: B1 VL with Y31G, S50Y, A51T, G52P, F92S, N93R, F94M, L96I
notes: also called 1S3PL3-46; 4S3PL3-46

binding result [2]: binds
B11: anti-Siglec-3 antibody H3-9E reformatted into human IgG1 or IgG4 (antibody, V domains shown)
VH: B2 VH with G29D, S30D, W32F, N99G, D100H, H101P, W102P, D103Y, L104D, W105Y
VL: B1 VL with Y31G, S50Y, A51T, G52P, F92Y, N93D, L96I
notes: also called 1H3-9E; 4H3-9E

binding result [2]: binds
B12: anti-Siglec-3 antibody S3H2-10 reformatted into human IgG1 or IgG4 (antibody, V domains shown)
VH: B2 VH with G29D, S30D, W32F, G49A, G51P, Y53L, G54Q, Y56K
VL: B1 VL with Y31G, S50Y, A51T, G52P, F92Y, N93D, L96I
notes: also called 1S3H2-10; 4S3H2-10

binding result [2]: binds
B13: anti-Siglec-3 antibody S3H2-12 reformatted into human IgG1 or IgG4 (antibody, V domains shown)
VH: B2 VH with G29D, S30D, W32F, G49T, G51S, Y53N, G54T, Y56H, Y58N
VL: B1 VL with Y31G, S50Y, A51T, G52P, F92Y, N93D, L96I
notes: also called 1S3H2-12; 4S3H2-12

binding result [2]: binds
B14: anti-Siglec-3 antibody H3-7G reformatted into human IgG1 or IgG4 (antibody, V domains shown)
VH: B2 VH with G29D, S30D, W32F, N99R, H101D, W102K, D103P, L104Q, W105M
VL: B1 VL with Y31G, S50Y, A51T, G52P, F92Y, N93D, L96I
notes: also called 1H3-7G; 4H3-7G
